Reference: patent US10913773B2, “Bicyclic peptidyl inhibitor of tumor necrosis factor-alpha” (Ohio State Innovation Foundation, priority 2016, dated 2021)
Where two headings read alike, the source gives them in different places. Starred links: 1 amine or outer side, 2 acyl side, 3 side chain; linkers in the order of their positions; H or OH if unused. Positions of bridges follow the written chain, without caps; N, C: chain ends. Non-standard residues stand in square brackets, D forms with d. Residues, ends and D or L forms follow the SMILES beside them. Groups on a side chain read outwards from the residue. Primed or numbered codes have the meaning given here. No end group written: not given here. *: point of attachment. Lys(5-FITC)NH2 = NC(=O)[C@H](CCCCNC(=S)Nc1ccc2c(c1)C(=O)OC21c2ccc(O)cc2Oc2cc(O)ccc21)N*; FITC(3) = fluorescein isothiocyanate (N6-fluorescein-thiocarbamoyl on Lys); FITC = O=C1OC2(c3ccc(O)cc3Oc3cc(O)ccc32)c2ccc(NC(=S)*)cc21; Trimesoyl = O=C(c1cc(C(=O)[*:2])cc(C(=O)[*:3])c1)[*:1]; trimesoyl″ = benzene-1,3,5-tricarbonyl scaffold; FITC′ = fluorescein isothiocyanate, on Lys NZ; Phg = N[C@H](C(=O)O)c1ccccc1; Nle = CCCC[C@H](N)C(=O)O; Dap = NC[C@H](N)C(=O)O; AEEA = NCCOCCOCC(=O)O; NHiPr = CC(C)N*

B1: Anticachexin C1 Tyr2 → Ala, NNNK(FITC)-tagged (peptide)
peptide: [Phg]A[dA]KY[dF]G[dK]H[Dap]NNNK(FITC′)-NH2
modifications: bridge (positions not given here) via trimesoyl″; not fully specified (N-terminus, bridges); also: feature: K4 labeled with FITC
B2: Anticachexin C1 Tyr5 → Ala, NNNK(FITC)-tagged (peptide)
peptide: [Phg]Y[dA]KA[dF]G[dK]H[Dap]NNNK(FITC′)-NH2
modifications: bridge (positions not given here) via trimesoyl″; not fully specified (N-terminus, bridges); also: feature: K4 labeled with FITC

Experiments:
TNFα = target: T1, TNFα (Homo sapiens, UniProt P01375); experiment: Fluorescence anisotropy (FA) binding of fluorescently labeled bicyclic peptides to TNFα; details: for Kd: Table 5, residue 11 variants with Lys(FITC)
T1 construct: ybbR tag (13 aa) (N); made in house; host or cells: Escherichia coli
Protocol: FITC-labeled bicyclic peptide (50 or 100 nM) were incubated with varying concentrations of TNFα (0-5 μM) in 30 mM HEPES, pH 7.4, 150 mM NaCl, and 2 mM magnesium acetate for 2 h. The FA values were measured on a Molecular Devices Spectramax M5 spectrofluorimeter, with excitation and emission wavelengths at 485 and 525 nm, respectively. Equilibrium dissociation constants (KD) were determined by plotting the FA values as a function of TNFα concentration and fitting the data to the following equation
[formula] where Y is the measured anisotropy at a given TNFα concentration x; L is the bicyclic peptide concentration; Qb/Qf is the correction fact for dye-protein interaction; Amax is the maximum anisotropy when all the peptides are bound to TNFα, while Amin is the minimum anisotropy. Competition experiments were performed by incubating 100 nM Asn-Asn-Asn-Lys(FITC)-labeled anticachexin C1 (Table 1), 2 μM of TNFα, and varying concentrations of unlabeled competitor peptide (0-20 μM) in the above buffer for 2 h. The FA values were plotted against the competitor peptide concentration to determine the IC50 values.
To identify residues significant for TNFα binding, each residue of anticachexin C1 (other than D-alanine at position-3, L-lysine at position-4, and L-2,3-diaminopropionic acid (Dap) at position-10) was individually replaced with an alanine (or D-alanine). To facilitate binding analysis by fluorescence anisotropy (FA), a tetrapeptide NNNK (SEQ ID NO: 1) was added to the C-terminus of each bicyclic peptide and the lysine side chain was labeled with fluorescein isothiocyanate (FITC) during solid-phase synthesis (Scheme 1). The three asparagine residues were added to improve the aqueous solubility of the bicyclic peptides. The bicyclic peptide was prepared by first synthesizing the full-length linear sequence on Rink amide resin using standard Fmoc/HBTU chemistry. The side chains of the two internal cyclization residues, L-lysine and Dap, were protected with monomethoxytrityl (Mmt) groups, whereas the C-terminal lysine was protected with an allyloxycarbonyl (Alloc) group. After removal of the N-terminal Fmoc group, a trimesic acid was coupled to the N-terminal amine using HBTU as the coupling agent. Next, the Mmt groups were selectively removed from the Lys and Dap side chains by 2% TFA and the peptide was cyclized by treatment with (benzotriazol-1-yloxy)tripyrrolidinophosphonium hexafluorophosphate (PyBOP). The Alloc group on the C-terminal lysine side chain was removed by treatment with Pd(PPh3)4 and the bicyclic peptide was selectively labeled at the C-terminal lysine by treating the resin with FITC. […] On the other hand, phenylglycine (Phg)-1 and glycine-7 play more minor roles in binding.

[1] = target: T2, Recombinant TNFα containing an N-terminal 13-aa ybbR tag (human, UniProt P01375 77-233, biotin at the ybbR tag in the ELISA assays); experiment: FA; against C1
T2 construct: Expressed in E. coli; Same construct used unlabelled (FA) and biotinylated on NeutrAvidin (ELISA); also called tumor necrosis factor-alpha; human TNFα; not shown: N-terminal 13-aa ybbR tag
Protocol: (§1) The FA values were measured on a Molecular Devices Spectramax M5 spectrofluorimeter, with excitation and emission wavelengths at 485 and 525 nm, respectively. Equilibrium dissociation constants (KD) were determined by plotting the FA values as a function of TNFα concentration and fitting the data to the following equation $$Y = \frac{\left(Amin + \left(Amax \times \frac{Q_b}{Q_f} - Amin\right)\left(\frac{(L+x+K_d) - \sqrt{((L+x+K_d)^2 - 4Lx)}}{2L}\right)\right)}{\left(1 + \left(\frac{Q_b}{Q_f} - 1\right)\left(\frac{(L+x+K_d) - \sqrt{((L+x+K_d)^2 - 4Lx)}}{2L}\right)\right)}$$
(§2) where Y is the measured anisotropy at a given TNFα concentration x; L is the bicyclic peptide concentration; Qb/Qf is the correction fact for dye-protein interaction; Amax is the maximum anisotropy when all the peptides are bound to TNFα, while $Amin$ is the minimum anisotropy. […] The FA values were plotted against the competitor peptide concentration to determine the IC$50$ values.

[2] = target: T2, Recombinant TNFα containing an …; experiment: FA, FITC-peptide + TNFα titration
Protocol: as §1, §2

[3] = target: T2, Recombinant TNFα containing an …; experiment: FA, FITC-peptide + TNFα titration; remark: listed apart in the source
Protocol: as §1, §2

T2 sequence (P01375 77-233): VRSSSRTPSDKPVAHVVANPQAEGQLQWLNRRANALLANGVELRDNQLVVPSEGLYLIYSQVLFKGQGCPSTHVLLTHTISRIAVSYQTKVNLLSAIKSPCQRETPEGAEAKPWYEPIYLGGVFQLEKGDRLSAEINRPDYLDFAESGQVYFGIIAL

Molecule | Fold of Affinity Reduction [1] [fold] | Kd [2] [nM] | further results
CCCC[C@@H]1NC(=O)c2cc3cc(c2)C(=O)NC[C@@H](C(=O)N[C@@H](CCCCNC(=S)Nc2ccc4c(c2)C(=O)OC42c4ccc(O)cc4Oc4cc(O)ccc42)C(N)=O)NC(=O)[C@H](Cc2c[nH]cn2)NC(=O)[C@@H](CCCCN)NC(=O)CNC(=O)[C@@H](Cc2ccccc2)NC(=O)[C@H](Cc2ccc(O)cc2)NC(=O)[C@H](CCCCNC3=O)NC(=O)[C@@H](C)NC(=O)[C@H](Cc2ccc(O)cc2)NC1=O [Compound C1-5] | – | – | Increase of TNFα binding affinity (fold) (TNFα; relative to comparator analogue named in text): ~2 fold
CCCC[C@@H]1NC(=O)c2cc3cc(c2)C(=O)NC[C@@H](C(=O)N[C@@H](CCCCNC(=S)Nc2ccc4c(c2)C(=O)OC42c4ccc(O)cc4Oc4cc(O)ccc42)C(N)=O)NC(=O)[C@H](Cc2ccccc2)NC(=O)[C@@H](CCCCN)NC(=O)CNC(=O)[C@@H](Cc2c[nH]cn2)NC(=O)[C@H](Cc2c[nH]c4ccccc24)NC(=O)[C@H](CCCCNC3=O)NC(=O)[C@@H](CO)NC(=O)[C@H](Cc2ccc(O)cc2)NC1=O [Compound C1-50] ([Nle]Y[dS]KW[dH]G[dK]F[Dap]K(FITC)-NH2; linker N-4-10 via Trimesoyl) | – | – | Reduction of TNFα binding affinity (fold) (TNFα; His-9 replaced with Phe, relative to parent): ~30 fold
CCCC[C@@H]1NC(=O)c2cc3cc(c2)C(=O)NC[C@@H](C(=O)N[C@H]2CCC[C@@H]2C(=O)NCCOCCOCC(=O)N[C@@H](CCCCNC(=S)Nc2ccc4c(c2)C(=O)OC42c4ccc(O)cc4Oc4cc(O)ccc42)C(N)=O)NC(=O)[C@H](Cc2c[nH]cn2)NC(=O)[C@@H](CCCCN)NC(=O)CNC(=O)[C@@H](Cc2c[nH]cn2)NC(=O)[C@H](Cc2c[nH]c4ccccc24)NC(=O)[C@H](CCCCNC3=O)NC(=O)[C@@H](CO)NC(=O)[C@H](Cc2ccc(O)cc2)NC1=O [Compound C1-63] | – | – | Kd (TNFα): 160 ± 150 nM
CCCC[C@@H]1NC(=O)c2cc3cc(c2)C(=O)NC[C@@H](C(=O)N[C@@H](CC(=O)NCCOCCOCC(=O)N[C@@H](CCCCNC(=S)Nc2ccc4c(c2)C(=O)OC42c4ccc(O)cc4Oc4cc(O)ccc42)C(N)=O)C(=O)NCC)NC(=O)[C@H](Cc2c[nH]cn2)NC(=O)[C@@H](CCCCN)NC(=O)CNC(=O)[C@@H](Cc2c[nH]cn2)NC(=O)[C@H](Cc2c[nH]c4ccccc24)NC(=O)[C@H](CCCCNC3=O)NC(=O)[C@@H](CO)NC(=O)[C@H](Cc2ccc(O)cc2)NC1=O [Compound C1-60] ([Nle]Y[dS]KW[dH]G[dK]H[Dap]D([AEEA-Lys(5-FITC)NH2])-NHEt; linker N-4-10 via Trimesoyl) | – | – | Kd (TNFα): 380 ± 140 nM
CCCC[C@@H]1NC(=O)c2cc3cc(c2)C(=O)NC[C@@H](C(=O)Nc2cn(C)cc2C(=O)NCCOCCOCC(=O)N[C@@H](CCCCNC(=S)Nc2ccc4c(c2)C(=O)OC42c4ccc(O)cc4Oc4cc(O)ccc42)C(N)=O)NC(=O)[C@H](Cc2c[nH]cn2)NC(=O)[C@@H](CCCCN)NC(=O)CNC(=O)[C@@H](Cc2c[nH]cn2)NC(=O)[C@H](Cc2c[nH]c4ccccc24)NC(=O)[C@H](CCCCNC3=O)NC(=O)[C@@H](CO)NC(=O)[C@H](Cc2ccc(O)cc2)NC1=O [Compound C1-65] | – | – | Kd (TNFα): 1900 ± 900 nM
CCCC[C@@H]1NC(=O)c2cc3cc(c2)C(=O)NC[C@@H](C(=O)N2CCC[C@@H](C(=O)NCCOCCOCC(=O)N[C@@H](CCCCNC(=S)Nc4ccc5c(c4)C(=O)OC54c5ccc(O)cc5Oc5cc(O)ccc54)C(N)=O)C2)NC(=O)[C@H](Cc2c[nH]cn2)NC(=O)[C@@H](CCCCN)NC(=O)CNC(=O)[C@@H](Cc2c[nH]cn2)NC(=O)[C@H](Cc2c[nH]c4ccccc24)NC(=O)[C@H](CCCCNC3=O)NC(=O)[C@@H](CO)NC(=O)[C@H](Cc2ccc(O)cc2)NC1=O [Compound C1-64] | – | – | Kd (TNFα): 340 ± 230 nM
CCCC[C@@H]1NC(=O)c2cc3cc(c2)C(=O)NC[C@@H](C(=O)N[C@@H](CC(=O)NCCOCCOCC(=O)N[C@@H](CCCCNC(=S)Nc2ccc4c(c2)C(=O)OC42c4ccc(O)cc4Oc4cc(O)ccc42)C(N)=O)C(=O)NC(C)C)NC(=O)[C@H](Cc2c[nH]cn2)NC(=O)[C@@H](CCCCN)NC(=O)CNC(=O)[C@@H](Cc2c[nH]cn2)NC(=O)[C@H](Cc2c[nH]c4ccccc24)NC(=O)[C@H](CCCCNC3=O)NC(=O)[C@@H](CO)NC(=O)[C@H](Cc2ccc(O)cc2)NC1=O [Compound C1-61] ([Nle]Y[dS]KW[dH]G[dK]H[Dap]D([AEEA-Lys(5-FITC)NH2])-NHiPr; linker N-4-10 via Trimesoyl) | – | – | Kd (TNFα): 420 ± 210 nM
[Phg]Y[dA]KY[dF]G[dA]H[Dap]NNNK(FITC(3))-NH2 (linker N-4-10 via trimesoyl″) [Anticachexin C1 D-Lys8 → D-Ala, NNNK(FITC)-tagged] | 7 | 5900 | –
[Phg]Y[dA]KY[dA]G[dK]H[Dap]NNNK(FITC(3))-NH2 (linker N-4-10 via trimesoyl″) [Anticachexin C1 D-Phe6 → D-Ala, NNNK(FITC)-tagged] | 4 | 3400 | –
[Phg]Y[dA]KY[dF]A[dK]H[Dap]NNNK(FITC(3))-NH2 (linker N-4-10 via trimesoyl″) [Anticachexin C1 Gly7 → Ala, NNNK(FITC)-tagged] | 1.5 | 1200 | –
[Phg]Y[dA]KY[dF]G[dK]A[Dap]NNNK(FITC(3))-NH2 (linker N-4-10 via trimesoyl″) [Anticachexin C1 His9 → Ala, NNNK(FITC)-tagged] | 5 | 4400 | –
B1 | 14 | 13000 | –
B2 | 12 | 11000 | –
[Nle]Y[dS]KW[dH]G[dK]H[Dap]DK(FITC)-NH2 (linker (positions not given here) via trimesoyl″; not fully specified (bridges), C1-35 core with R11 as printed) [C1-51] | – | – | Kd [3]: 3500 nM
AY[dA]KY[dF]G[dK]H[Dap]NNNK(FITC(3))-NH2 (linker N-4-10 via trimesoyl″) [Anticachexin C1 Phg1 → Ala, NNNK(FITC)-tagged] | 1.2 | 1000 | –
[Nle]Y[dS]KW[dH]G[dK]H[Dap][AEEA]K(FITC)-NH2 (linker N-4-10 via trimesoyl″, C1-35 core with R11 as printed) [C1-54] | – | – | Kd [3]: 5100 nM
[Nle]Y[dS]KW[dH]G[dK]H[Dap]F[AEEA]K(FITC)-NH2 (linker N-4-10 via trimesoyl″, C1-35 core with R11 as printed) [C1-55] | – | – | Kd [3]: 1000 nM
[Nle]Y[dS]KW[dH]G[dK]H[Dap]I[AEEA]K(FITC)-NH2 (linker N-4-10 via trimesoyl″, C1-35 core with R11 as printed) [C1-57] | – | – | Kd [3]: 510 nM
